Results from the supplement of paper PMC10126150.
± gives the standard deviation of the averaged measurements.

Test system: ATP
Test: switch fluorescence ratio, 500 uM ATP over buffer (Cy3 cluster intensity, sum of 5 cycles each) (fold (ratio)); higher = stronger signal-on switching upon ATP binding; sequences stand for … in TCGTCGGCAGCGTCAGATGTGTATAAGAGACAGTTTTTTTTTTTTTTTTTTTTTTTTT…TC
Conditions: aptamer strand: ATP DNA aptamer (quencher-CACCTGGGGGAGTATTGCGGAGGAAGG + anchor), 100 nM annealed; ATP concentration: 500 uM
Method in brief: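 Clusters with intensities outside 100-1000 RFU were excluded. The remaining Cy3-labelled switching-strand clusters on a modified Illumina MiSeq flow-cell had been annealed to 100 nM quencher-labelled ATP aptamer and imaged in selection buffer, then after 15 min with 500 uM ATP at 22 °C, for five cycles separated by NaOH stripping and re-annealing. The fluorescence ratio, averaged per switch-domain sequence, is each cluster's summed target-cycle Cy3 intensity over its summed buffer-cycle Cy3 intensity.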
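Further: ATP exposure 15 min at 22 °C before imaging.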

| Sequence | switch fluorescence ratio |
| --- | --- |
| GATTGAGGGA | 1.01 ± 0.016 |
| AGCCTACTTT | 1 ± 0.038 |
| ATTCGGGGAC | 1.058 ± 0.009 |
| TTGATTGGCA | 0.993 ± 0.025 |
| AATAAATCGT | 0.998 ± 0.024 |
| TTCTCCCGGG | 1.29 ± 0.068 |
| AGAGGTAAGC | 1.02 ± 0.019 |
| CATTGCAGTT | 1.01 ± 0.026 |
| CTTTATTTTC | 1.03 ± 0.039 |
| GTATGGCTGG | 0.976 ± 0.044 |
| TCGGTTGTCC | 0.978 ± 0.018 |
| CAGCTATGTG | 0.973 ± 0.011 |
| TTATGCAGGT | 1.0341 ± 0.00034 |
| CGTTTATAGT | 1.02 ± 0.039 |
| TTAGAGGGCA | 0.99086 ± 0.00097 |
| ATATGACGCT | 1.04 ± 0.09 |
| CGGGGTTACC | 0.9924 ± 0.0059 |
| TTTTTGTAGT | 1.01 ± 0.032 |
| TTTATTAATC | 0.99544 ± 0.00085 |
| TTGTATTTGC | 0.976 ± 0.031 |
| TGGTTGG | 0.994 ± 0.0015 |
| TTTGTAAAAA | 0.9829 ± 0.0094 |
| ATGTTGGTCG | 0.974 ± 0.028 |

| Sequence | switch fluorescence ratio |
| --- | --- |
| TTGATTAATA | 0.962 ± 0.022 |
| ATGTACTACT | 1.07 ± 0.068 |
| CACGATTACT | 1.281 ± 0.0018 |
| AAGTTAAGGC | 1.02 ± 0.013 |
| TGTGTTAAGA | 0.9898 ± 0.0095 |
| AGGTGTTCGG | 0.976 ± 0.019 |
| ACTTCGGGTA | 1.003 ± 0.0017 |
| GGGGGGAGGG | 1 ± 0.052 |
| TTCGGCGGCA | 1.02 ± 0.036 |
| GCGCTTGGGA | 1.03 ± 0.056 |
| TTCTCGTGTG | 0.974 ± 0.035 |
| TTTGCAACAG | 0.986 ± 0.023 |
| AAGATTAGTC | 0.974 ± 0.041 |
| AAAGTACGCG | 0.984 ± 0.046 |
| TTTAGCCCTT | 1.01 ± 0.037 |
| GAAGAGGGAG | 0.997 ± 0.026 |
| CGAGTCAGTG | 0.979 ± 0.065 |
| CTGGGAGGGG | 1.01 ± 0.029 |
| ATCATTGCGG | 0.9746 ± 0.0012 |
| CGGGGGCCAG | 0.994 ± 0.038 |
| AGGGTATTGG | 0.993 ± 0.028 |
| TAAGCGGGGC | 1.0163 ± 0.00063 |
| ATTATAGTGG | 1.04 ± 0.02 |

| Sequence | switch fluorescence ratio |
| --- | --- |
| GTGGTGAGGC | 1.001 ± 0.0055 |
| GTGTGTAATT | 1.01 ± 0.059 |
| TACGGGTAT | 0.9977 ± 0.0024 |
| TTTAGAGATT | 1.01 ± 0.068 |
| TCCGGGAAGC | 1.24 ± 0.035 |
| ACACCGGGTC | 1.21 ± 0.071 |
| CTTTAAGTCT | 0.994 ± 0.039 |
| GGGCATGAAA | 1.02 ± 0.021 |
| GTCTAAGAGT | 0.9786 ± 0.0048 |
| CAGGAGTTGA | 1.01 ± 0.025 |
| TCATAGAGG | 0.9822 ± 0.0058 |
| AGGTCAGTTA | 0.998 ± 0.028 |
| GGTATAAATG | 1 ± 0.019 |
| GCAGCTGGG | 1.03 ± 0.039 |
| GTCGATGGTG | 1 ± 0.016 |
| CTATAAGGGG | 0.999 ± 0.026 |
| TAGTAGGAGG | 0.9721 ± 0.0061 |
| GTATGTTAGG | 1.0143 ± 0.00055 |
| TGTCGAGGGC | 0.965 ± 0.021 |
| GTGGCGGTTT | 0.995 ± 0.044 |
| TTGGCATGAG | 0.987 ± 0.02 |
| CGACGACTGG | 1.01 ± 0.017 |
| GAGCCACGGG | 1.04 ± 0.015 |

| Sequence | switch fluorescence ratio |
| --- | --- |
| CCAGCTGGCT | 1.026 ± 0.0063 |
| CATGCAGATA | 1.006 ± 0.0094 |
| AAATGTGGCG | 1.03 ± 0.011 |
| CCGATTTGGC | 1.14 ± 0.044 |
| TGAGAAGACT | 1.03 ± 0.033 |
| AGACTGGGGG | 0.997 ± 0.033 |
| GAAGCGTTGG | 1.02 ± 0.0032 |
| AGGCGCTGGG | 0.999 ± 0.028 |
| GAAGGATGCT | 1.03 ± 0.098 |
| CGGATAGTGG | 0.994 ± 0.014 |
| TACAGGGGAA | 1.09 ± 0.056 |
| GCACGAGTGC | 0.97 ± 0.02 |
| CACTGGGATT | 1.01 ± 0.018 |
| ATTTTTGTTG | 0.9883 ± 0.008 |
| CGGTGGTGGC | 1.13 ± 0.015 |
| TAAGGCTAGT | 0.969 ± 0.01 |
| GGAGTTTCGT | 0.988 ± 0.023 |
| AATCGGGTGT | 1.11 ± 0.047 |
| CCGGGGGTCG | 1.06 ± 0.074 |
| TGGGCTCTTT | 1 ± 0.019 |
| TTCGTGGAAT | 0.977 ± 0.028 |
| CTCGAAGTGG | 0.996 ± 0.021 |
| CGAGGAGGGG | 0.995 ± 0.02 |

| Sequence | switch fluorescence ratio |
| --- | --- |
| CTGAAGCTAG | 2.27 ± 0.0024 |
| CGGCTCGATA | 0.976 ± 0.02 |
| GTTTGGGTGG | 0.9979 ± 0.0065 |
| ATTGTAGGAC | 1.01 ± 0.036 |
| ATAGGGGGTC | 0.988 ± 0.047 |
| ACATTTAGCT | 1.01 ± 0.03 |
| ATTAGTTTTT | 0.9731 ± 0.0076 |
| TTAGATGAAG | 0.987 ± 0.031 |
| CTGGTAGGGG | 0.983 ± 0.015 |
| CATCAGGGTT | 0.974 ± 0.013 |
| GGGGCGTGCG | 1.01 ± 0.02 |
| GCGACCAGGC | 1.14 ± 0.079 |
| TGGCTAGATA | 0.973 ± 0.041 |
| TTCAATAGGG | 1.02 ± 0.036 |
| AGGTCCAGGT | 1.262 ± 0.0015 |
| TGCTGGTCGG | 0.985 ± 0.035 |
| TTCGGAATTA | 0.995 ± 0.0066 |
| TTATGTGAGG | 0.977 ± 0.034 |
| GAGAGCCTTA | 0.9853 ± 0.0079 |
| AATGAATTTG | 0.975 ± 0.043 |
| TTTTACCCAA | 1.04 ± 0.024 |
| AAGGGCAGTT | 0.97609 ± 0.00084 |
| TCGTAACTGT | 1.03 ± 0.016 |

| Sequence | switch fluorescence ratio |
| --- | --- |
| TGTTTCTAAT | 0.999 ± 0.02 |
| TTTGCGCTCG | 0.968 ± 0.037 |
| TAACTGACGG | 1.268 ± 0.012 |
| GCTGGGGTGC | 1 ± 0.09 |
| GAGTTCTAGG | 0.991 ± 0.038 |
| TTTGGCTGTA | 0.97 ± 0.012 |
| GTTACGGGGT | 0.975 ± 0.024 |
| ATCTCATAGT | 1 ± 0.025 |
| GGCTGGTATA | 0.987 ± 0.031 |
| TACAATGCTT | 1.02 ± 0.017 |
| TCAAGTGCTT | 0.9688 ± 0.0071 |
| AAAGCTGCGT | 0.9843 ± 0.0049 |
| TATGCTAACT | 1 ± 0.051 |
| TGACAGTCAG | 0.968 ± 0.02 |
| ATAGGTCAGG | 1.026 ± 0.0022 |
| GGAGTCATGA | 0.982 ± 0.04 |
| GAGGTCATTA | 0.9895 ± 0.0023 |
| CGTGTAGTGG | 0.984 ± 0.018 |
| CATCTTGAAT | 1 ± 0.046 |
| TCGTTTATTA | 1 ± 0.089 |
| AAAACAGTTC | 1.04 ± 0.048 |
| AACGGGGTTA | 1.04 ± 0.06 |
| AGCCAGTTCG | 1 ± 0.012 |

| Sequence | switch fluorescence ratio |
| --- | --- |
| AGTGTGTGGG | 1.02 ± 0.03 |
| CGGCTAGTGG | 0.961 ± 0.032 |
| CGGGTGGTGG | 0.99 ± 0.017 |
| ACTGAGTTGG | 0.986 ± 0.013 |
| AGTTGGTTTT | 1.02 ± 0.033 |
| AACCAGCGGA | 0.994 ± 0.019 |
| GATGCAAGAG | 3.78 ± 0.7 |
| AATTGCGTGG | 0.988 ± 0.017 |
| TATACCATTA | 0.997 ± 0.051 |
| AGGAGCGGGG | 1 ± 0.1 |
| AGGGGAATGC | 1.09 ± 0.084 |
| TAATGCAATA | 1.67 ± 0.054 |
| CGCGTTAGGG | 1.03 ± 0.011 |
| ATTATAGGG | 1 ± 0.015 |
| GGAAGATTTG | 1.06 ± 0.055 |
| AGTACGGGGT | 0.982 ± 0.031 |
| GTTGTTGAGG | 0.999 ± 0.012 |
| AGTAGTATTT | 1.017 ± 0.0014 |
| TTATTTTGTG | 0.987 ± 0.035 |
